A short description of the series: protein stability index of a GFP-peptide fusion (GPS, HEK-293T) (PSI 1-6); higher = more stable. The conditions noted are these: c terminus: a fixed tail appended.

± gives the standard deviation.
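Note: 24-mer peptide tiles fused after GFP, lentivirally expressed, FACS-sorted into six equal bins by GFP/DsRed ratio, decoded by Illumina sequencing, PSI is the read-weighted mean bin number.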

As to IMDTVGNIWVCYASYVVFRIIYML [SLC19A2], the protein stability index runs as follows: (treatment: DMSO) 2.83 ± 0.41; (treatment: MLN4924 1 uM, 8 h) 3.12 ± 0.53.

IMTDLYYLSQTDGAGDWREKEAKD [FUT8]: the protein stability index runs as follows: (treatment: DMSO) 3.59 ± 0.42; (treatment: MLN4924 1 uM, 8 h) 3.69 ± 0.32.

Consider INYCALNKPGCEHECVNMEESYYC [MATN2], for which the protein stability index runs as follows: (treatment: DMSO) 3.26 ± 0.7; (treatment: MLN4924 1 uM, 8 h) 3.28 ± 0.64.

With IPLEQGSSCNGPGQTTGHPYYLRS [FAN1], the protein stability index is 5.05 ± 0.38 (treatment: DMSO) and 5 ± 0.18 (treatment: MLN4924 1 uM, 8 h).

Turning to IPPMAQPGLPPVPGAPGMPPGIPP [ZNF207], the protein stability index worked out at 4.29 ± 0.24 (treatment: DMSO) and 4.4 ± 0.35 (treatment: MLN4924 1 uM, 8 h).

For IQEQKVVLEENGEKNQVQLGKLEA [SASS6], the protein stability index stood at 5.2 ± 0.22 (treatment: DMSO) and 5.42 ± 0.3 (treatment: MLN4924 1 uM, 8 h).

On to IQFKKHEEEGIETQYFAELLMTSG [CNOT7], for which the protein stability index is, setting by setting: (treatment: DMSO) 2.82 ± 0.21; (treatment: MLN4924 1 uM, 8 h) 2.82 ± 0.35.

As for IQQALTMFPGVLLPLLESCSVRPD [TCF25], the protein stability index runs as follows: (treatment: DMSO) 2.4 ± 0.5; (treatment: MLN4924 1 uM, 8 h) 3.18 ± 0.58.

For the sequence ISEHEHFTDFNATSALFWEQHDLV [CLPTM1], the protein stability index turned out to be 3.33 ± 0.27 (treatment: DMSO) and 3.38 ± 0.35 (treatment: MLN4924 1 uM, 8 h).

On to ITHTREEQPHGRSRRREQSSSRNS [ZNF8], for which the protein stability index turned out to be 5.33 ± 0.37 (treatment: DMSO) and 5.41 ± 0.13 (treatment: MLN4924 1 uM, 8 h).

Take ITVKNLRMAIGYLHSHRHLYPEGI [POMT2]: the protein stability index (treatment: DMSO) came to 3.02 ± 0.38 and the protein stability index (treatment: MLN4924 1 uM, 8 h) is 2.88 ± 0.58.

Take IVYHPYRPLLQYVQDMGQEDMLLP [CCNC]: the protein stability index runs as follows: (treatment: DMSO) 2.25 ± 0.57; (treatment: MLN4924 1 uM, 8 h) 1.93 ± 0.34.

Regarding IWSEVFTVEKPGGKKVAVVLMDTQ [ATL3], the protein stability index worked out at 2.2 ± 0.34 (treatment: DMSO) and 2.37 ± 0.39 (treatment: MLN4924 1 uM, 8 h).

IYKKYALQSAAGKDAAKQIAWIKD [PDS5B]: the protein stability index is, setting by setting: (treatment: DMSO) 2.03 ± 0.3; (treatment: MLN4924 1 uM, 8 h) 2.61 ± 0.44.

On to IYKLEEHEEFFPAFQAFTNDLLEI [CEP70], for which the protein stability index stood at 2.43 ± 0.24 (treatment: DMSO) and 2.39 ± 0.072 (treatment: MLN4924 1 uM, 8 h).

Turning to IYLLRRQIRTVIQYQTVRYDILPL [CTDNEP1], the protein stability index reads like this: (treatment: DMSO) 2.94 ± 0.34; (treatment: MLN4924 1 uM, 8 h) 2.56 ± 0.51.

In the case of KAAGSVSKSTQFEYAWCLVRSKYN [FIS1], the protein stability index came out at 2.24 ± 0.57 (treatment: DMSO) and 2.17 ± 0.37 (treatment: MLN4924 1 uM, 8 h).

As for KAFREEMKIFREKIEDFREEMWTF [CCDC70], the protein stability index by setting is: (treatment: DMSO) 2.35 ± 0.2; (treatment: MLN4924 1 uM, 8 h) 2.03 ± 0.54.

Consider KAKQEKVSAQYLSEIEMAKAQRDY [FLOT1], for which the protein stability index runs as follows: (treatment: DMSO) 4.54 ± 0.12; (treatment: MLN4924 1 uM, 8 h) 4.64 ± 0.18.

For the sequence KAPYLCEATHEPAAARIRAQVPDT, the protein stability index by setting is: (treatment: DMSO) 4.65 ± 0.4; (treatment: MLN4924 1 uM, 8 h) 4.2 ± 0.68.

For the sequence KEDALLYQSKGYNDDYYEESYFTT [EMD], the protein stability index was determined as 4.2 ± 0.2 (treatment: DMSO) and 4.21 ± 0.18 (treatment: MLN4924 1 uM, 8 h).

For the sequence KELIIFRLVAPTEGSLEWDILEVK [WDR41], the protein stability index stood at 2.22 ± 0.24 (treatment: DMSO) and 2.21 ± 0.4 (treatment: MLN4924 1 uM, 8 h).

Regarding KEQHLWDVDLLDSKVIEILDSQTE [DLC1], the protein stability index turned out to be 4.79 ± 0.26 (treatment: DMSO) and 4.5 ± 0.18 (treatment: MLN4924 1 uM, 8 h).

As for KEQNNLKQLEFGLKEAPVQDQGYK [ZNF8], the protein stability index is, setting by setting: (treatment: DMSO) 5.08 ± 0.2; (treatment: MLN4924 1 uM, 8 h) 5.25 ± 0.17.

Consider KERLLLSAAVPAGQTYVDAGYEVD [CHIT1], for which the protein stability index is 4.67 ± 0.15 (treatment: DMSO) and 4.67 ± 0.12 (treatment: MLN4924 1 uM, 8 h).

KESMSEADRAQKMDGESEEEQESV [EHMT1]: the protein stability index is, setting by setting: (treatment: DMSO) 5.71 ± 0.35; (treatment: MLN4924 1 uM, 8 h) 5.59 ± 0.23.

As for KEVPVVHTETKTITYESSQVDPGT [EPB41L3], the protein stability index runs as follows: (treatment: DMSO) 5.33 ± 0.42; (treatment: MLN4924 1 uM, 8 h) 5.2 ± 0.25.

Take KFSLLNAKREETKAMESQRAYRFV [SPOPL]: the protein stability index is 3.06 ± 0.42 (treatment: DMSO) and 3.13 ± 0.23 (treatment: MLN4924 1 uM, 8 h).

As to KGTENLQRAQAEVLQSVRELSRSR [FCHSD1], the protein stability index (treatment: DMSO) was determined as 4.61 ± 0.27 and the protein stability index (treatment: MLN4924 1 uM, 8 h) amounted to 4.41 ± 0.38.

KHGFSWAVPKFMKRIKVPDYKDRS [DLC1]: the protein stability index worked out at 2.56 ± 0.08 (treatment: DMSO) and 2.94 ± 0.31 (treatment: MLN4924 1 uM, 8 h).

On to KIENGYPLHAPEAYFPYFKKHNVT [CDC14A], for which the protein stability index was 2.2 ± 0.19 (treatment: DMSO) and 2.32 ± 0.18 (treatment: MLN4924 1 uM, 8 h).

Take KIQDLIDDKDALVFVLIDEVESLT [TRIP13]: the protein stability index was 2.46 ± 0.36 (treatment: DMSO) and 2.36 ± 0.11 (treatment: MLN4924 1 uM, 8 h).

As to KKDKDISKEKDTQNQNITLDCEGT [KMT2E], the protein stability index is, setting by setting: (treatment: DMSO) 5.23 ± 0.26; (treatment: MLN4924 1 uM, 8 h) 5.49 ± 0.28.

As to KKIPIISNAMLVGDKLKFLSMLLT [ACSBG2], the protein stability index (treatment: DMSO) was 2.3 ± 0.79 and the protein stability index (treatment: MLN4924 1 uM, 8 h) came out at 2.47 ± 0.6.

In turn, KKNGLYLSLVLGNVNVTLLSKQAK [TMEM120A] showed a protein stability index (treatment: DMSO) of 2.51 ± 0.64 and a protein stability index (treatment: MLN4924 1 uM, 8 h) of 2.57 ± 0.35.

Regarding KLDQLDQDIENALSTSSSPSGTPT [DLC1], the protein stability index was found to be 5.2 ± 0.19 (treatment: DMSO) and 5.35 ± 0.27 (treatment: MLN4924 1 uM, 8 h).
